Here are results for 15 sequences from a protein production outcome set (Wang et al. 2014).

This data set is described as follows: label from the status in PepcDB records.
Turning to “MSEPIPPFRYAPIVCSEQSTIVAEFVPEASGVREAGYQSEAELEAAFIKQLQGQAYEYLPITSEAALLANLRRQLEKLNKVTLSDAEWEGFFSTCIAGAHDGIVEKTARIQENHVQVLKRDDGTIKNMCLLDKVNIHNNTLQVMNQYAVEGARANRYDVTVLVNGLPMVHVELKRRGVDIREAFNQINRYQRDSFWAGSGLLDYVQLFVISNGTLTKYYSNTVRAGHVEEQSNKRSKSKTSNSFSFAIWWADAKNQPITELTSFTKTFFAKHSLLNVLTKYCVFNAKRKLLVMRPYQIVAAERILQRIVIATHQQQLGTVAAGGYIWHTTGSGKTLTSFKVAQLACGLGVIDKVLFVVDRKDLDYQTMREYESFQKGAANSNTSTAVLQRQLEDSDVHIIITTIQKLSRFVAKHKQHPVYGAHVVVIFDECHRSQFGDMHTKITRAFQRYHLFGFTGTPIFAENAGSTQNPMRRTTQQTFGDTLHTYTIVDAINDKTVLPFRIDYINTIKSQPNIKDKKVAAIDTERALLAPERIRQIVSYIREHFDQKTKRASIYRHEGQRLAGFNSLLATASIDAAKRYYAELMAQQKELPEARRLKVGLIYSVAANEGGGDGGLGEEEFETEGLDQESRNFLEAAIQDYNALFGTSFDTSADKFQNYYKDVSERLKKRKLDILIVVNMFLTGFDATTLNTLWVDKPLKAHGLIQAYSRTNRILNSVKSYGNIVSFRNLEQETNEALALFGNKDAKGIVLLRPYAEYYKQYEERVGELMAAFPLGKAIVGEAAQKAFITLFGSILRLKNILTAFDDFGGQEILTEREFQDYQSLYLNLYAEFRSASAAEKESINDDVVFEIELIKQVEINVDFILLLVEQYVKKKGTGEDKDIRATIERAIHSSPSLRNKKELIEQFVDAVSMKAKVDAQWQAFVAVKQSQELEGIIAEENLNAEAAREFIGNAFRDGGIPAMGTAITKVLPPVSRFSKNNGHAAKKQAVLDKFATFFERYFGLV”, the protein production result was “failed”.

“MSEQTSQYLSDSYVEETRFGFWFLRSHTWQHHVLRVAINDLRSLFDGELPRHPVLLDAGCGQGKSFQYLRQVFAPQRLIGLDADPHSLKLSAEEARRQQMQVELIGSDCATLELADASVDLLFCHQTFHHLVEQEKALAEFYRVLKPGGYLLFAESTEAYIDTWVIRWLFRHPMHVQKSAAQYLQMIRQQGFEFGPQNVSYPYLWWSRAKDFGLLERFGLRQPPPVGQREETLVNVVARKPLNPTVVEEGLPA”: the protein production result is given as “failed”.

Take “MSESKEMVRGTFLITISILITKVLGVLFIIPFTALIGGQANMAPFTYAYAPYNIAIAIATAGVPLAASKYVAKYNALGAYKVSQKFYKSSFVVMSITGIVGFLVLYLLAPYIAELTLSRNTHGNNGWTVADITWIIRIISMVVIFIPVLATWRGIFQGYKSMGPTAVSEVTEQIARIVFILVGSYLTLNVFGGTVLQANGIATFAAAIGAIAGILTLWYYWIKRRKNIKKMIDSDTANLNVSYGKMYKEIIAYSIPFVIVSLNFPLFNLVDQFTHNGALNLVGVKPGLQDIFFNMLNMSTNKIVMIPTSLSAGFAVSLIPFITKTYEEGRYAEMHRQIRTSIGVLMFITVPASIGIMALAQPLFTVFYGFDPVVHGHDPNFDGSRLLFYYAPVAILISLLSVTASMLQGIDKQKLTVFIILGSVLIKLILNYPLIMLLHTPGAVLSTAIALLFAICCNFYILKKYANFKFSYSWIHLAKIILISIIMMIGVEVIFFILRLFLEPTRFNYLIIVAIGVIVGAIIYGGITIKTKLADEFLGDIPAKIRRKVKMLR”: the protein production result was “failed”.

For the sequence “MSEVEQFATIALISLTAFISPLIADKLRVPVVVLEIVLGMIFGVSFLNVIYASEWLSFLSLFGLIFLMFLAGLEIDADVVLKSGHLKRVVAFFALSLALSVALTALMGLNLFYAIILTNVAVGVVVSVLREIGLEKEDFGQLNIVTALVSDFSTMFLLSIYFITGYLQVAFAFLIILVFLAAYRFGKLVIWHFPDFISRWFSDEPSEIGVRGSLAIMILFVGLSSLLGVEAILGAFLAGVLLSITFRGGKKLYDKLYGMGFGFFIPIFFIKTGSELNITQAGEGIGFILLLLAVSVAVKGIPSLIFASNFGLRRAISMGMLQSTKLSLTIAGVAIGVSSGVITEFESTALVTFTIISCLLSPTLFRFLYPRYLPKTR”, the protein production result is “failed”.

With “MSEVNKKVQDGVDDYLEEEDFGQLLEAFDKSREEATTEGVIVEIKNDEVYVDIGKKSEGILALSEIQGDNSKLLFNVGDSIKVAVMGSRGGRSLLSHKKALRKEKVIEFIKNYQENQDDIFTVKVVGKNKGGLIVVDENDVEFFLPKSQYGFKETNNIIGKTFKVKIIKIDKDEQSIIVSRKKTLDDERRKRKELINNVAQQEDLIEGIVKKITTYGMFVDVGGVDGLVHYSEISYKGPVNPGTLYKEGDKVPVKVIKYDKERKHLSLSIKAALPDPWSEIKDTLDIGDTIKVIVSNIEPYGAFVDLGNDIEGFLHISEISWDKNIKNPKDYINKGQEIDVEVIEINPNERRLRVSLRNLLSRPFDEFMKSYKIADVVEGEITSVTSFGAFVKLGGIEGLLHNEDASWDRNDKCKDKFSQGDKIKVKIIKIDEENQKISLSTKELSSSPVQEYAKIHKVGDIVKGAIRDIKDFGVFVELSKNVDALIHKEDISTSMLENLKIGDDIEAAIVFIDEKKNRIRLSVKNLVRIKEREVLNEINNDDKVTLGDIIKDQLALEHHHHHH”, the protein production result is “not failed”.

As to “MSEYEVLLATKRRTPPDSSAGRSSQIWRRAFGHWLQGRNGSSSLSNQNEPRPCRVRRNAGSHGPPVCIPFALALPPRMDVRLPSRLAPPLGAVLLCTLLMGGPPPTVASPAVLFPSADTTSPRARRLLIQGTTEAQLGDYEEAISHFEAALEQVPEAPVLLLALADAHEAQGALSTALFYARRAQTQGSPRPSPYRRLAEMQRAAGDPAAALRTYQQLLDHVPNANDAHRARAAIQADLGRTKGAIQSYEIYLQRADSPPIDVYRRLLSLYRKTGDKDGVETTLRTLVERRPTVRSYQRRLGEYYADEGRPRKALALLAPLGRQFPNDEALRRQVQRLARQTGQSIASPTQRAQSDSTRSQSASPDAPLRRARSMYDAATASSPPDTAQLRAAAGVLRDVLHQSPDTEAALSLQAELYQAWGRPEEAGRAMERLLDLTPRAPGRWVRTAQTYQRAHLYARAAGVAEEGFLLFPGHMPLARTAAFARLRTGDPAKARRHFQDALSLLGDSTGAAAEAVLHAGLGLAKSRLGRPREADDALKNARALAPQHPQVVRLYARSLARQDDRLDQALDLAEQAVENAPDSPSAHRALGQVQFRRDELEAARRHLRIALDAGGPSATLLERLGDVEAALGNDTAAQTYWQRALDRNPDRSSLREKLAVPANS”, the protein production result is listed as “failed”.

For “MSFCKLVSFVLILHLLNSCLISCSSNDLSQIPKNFLSLAKREDFFDWMVGIRRRIHENPELGYEEVETSKLVKTELDKMGVSYKNPVAVTGVIGYVGTGHAPFVALRADMDALPIQEMVEWEHKSKIPGKMHACGHDAHTTMLLGAAKLLKEHQEELQEGGAGAKKIVEAGVLENVGAIFGLHVSNLLGLGQLSSREGLLMAGSGRFKATISGKGGHAALPQFAIDPVLAASNVILSLQHLVSREADPLDSQVVTVATFEGSDAFNVIPDSVTIGGTFRALLPKSFEQLKQRIVQVITTQASVNMCNATVDFLEDETPPFPPTVNNKTLHLFYKNVSVDMLGIENYVETLPVMVSEDFAFYQQAIPGHFSFVGMQNKSHSPMANPHSPFFEVNEELLPYGASLLASLATRYLLDSSSSPNKDEL”, the protein production entry is reported as “failed”.

Consider “MSFESNQLMPIAALRGGPGTPAADVLTAFALRRKAEGIDVVGVIVPPEDAGSGHQGHGHGEGHGGGHEGCECRSELIDIATGDRYAMHQDLGSGSQACNLNSSSLALAAGAVERAVARKPALVVLSRFGGQEAVRGGLMSAFQAAIAAGVPVACVVTPKAEDVWNDFAQGLSVSLPPEADALEAWWRDHARGRNAALEHHHHHH”, for which the protein production result is reported as “failed”.

Turning to “MSFIEKMIGSLNDKREWKAMEARAKALPKEYHHAYKAIQKYMWTSGGPTDWQDTKRIFGGILDLFEEGAAEGKKVTDLTGEDVAAFCDELMKDTKTWMDKYRTKLNDSIGRD”, the protein production entry was “not failed”.

For “MSFKEEQVIKHHQDLANKSVSTFLLLGLDNSGKRKLSTSRTDGMMVVIVNHKTKTITLCSLLRDTFTKIYSQQYHGYQRIETAYTYGGDAAAVATVEHFLKLPIDYYVTLNWDGFIQAINDIGPLSVRVDRAFVGQNYWGHAVHFKAGLQEMNGARALAYARERHVDNDQYRGFRQQAVLYALLKRLNQGALVAKGSQIMGDVKGQVRTNMSEGDMLSLIKYRTVLKHYRVKRVTFQWRTFDTAGRSMVEVYPDSRQHTIAELQAAAGRRAPLEHHHHHH”, the protein production entry is on record as “failed”.

On to “MSFKGEITHLVPNELYAFKVVEGPFHYTGTYRFKPHPEGTWIEWVFEAEPGSFFGVLPPALLKKMVLAQFKKDVDNLQALAQKGEAYESVGNENKPTLETNKPPHKTQQMMERYARWILSHRRIVLEHHHHHH”, for which the protein production result is recorded as “failed”.

As for “MSFKNFKCVPKMIFGRGSFVQLDTVLEQERTDANDFVVFLVDDVHQHKPLAARVPNKAHDLVIYVNVDDEPTTVQVDELTAQVKAFNTKLPVSVVGLGGGSTMDLAKAVSLMLTNPGSSSEYQGWDLIKNPAVHHIGIPTVSGTGAEASRTAVLCGPVRKLGLNSDYTVFDQIIMDSELIAGVPTDQWFYTGMDCFIHCVESLQGTYLNEFAKAFAEKSMDLCREVYLDDHPEKDDKLMMASYMGGMSIAYSQVGACHAVSYGLGYVLGYHHGIGNCLAFDVLEEFYPEGVAEFRKMMEIHNITLPKNICKDLPDETIAKMVAVTKSMGPLWDNVYGKGWEEKVTDEMLTKLFRRI”, the protein production entry is recorded as “not failed”.

As for “MSFNVFSGSFGQIFKRSRKNSHEYKNENATFELIKSSILVAFSGALRIHLAFLLMYIQSNILVCIAGGLIIYTVYTLDRALGSEEDSVNRKELNGSNKKVGLTVSLLAFMVGTYILAGEEMLPLAFIPFVTGYLYSKGIKIGKFALKLKGGLGVKNIVVGLTWGIFIAGLAGSGCRNLIPVVLIFIFFGVKLFINSTIYDFKDIAGDTLAGINTLPVSLGVRKTRNLLTGMHLFSHLVIGVALIHGALAFEPLIVLYSFVCGLICIQKFTHPEYEEFPSQKMERTLLVDGESTSITGLRIAGYLIA”, the protein production entry is listed as “failed”.

Regarding “MSFPLIFERSRKGRRGLKLVKAVPKAEDLIPKEHLREVPPRLPEVDELTLVRHYTGLSRRQVGVDTTFYPLGSCTMKYNPKLHEEAARLFADLHPYQDPRTAQGALRLMWELGEYLKALTGMDAITLEPAAGAHGELTGILIIRAYHEDRGEGRTRRVVLVPDSAHGSNPATASMAGYQVREIPSGPEGEVDLEALKRELGPHVAALMLTNPNTLGLFERRILEISRLCKEAGVQLYYDGANLNAIMGWARPGDMGFDVVHLNLHKTFTVPHGGGGPGSGPVGVKAHLAPYLPVPLVERGEEGFYLDFDRPKSIGRVRSFYGNFLALVRAWAYIRTLGLEGLKKAAALAVLNARYLKELLKEKGYRVPYDGPSMHEFVAQPPEGFRALDLAKGLLELGFHPPTVYFPLIVKEALMVEPTETEAKETLEAFAEAMGALLKKPKEWLENAPYSTPVRRLDELRANKHPKLTYFDEG”, the protein production entry is given as “not failed”.

With “MSFQEIPIIDLQEAFDPATRSKFLEEVRDAIINVGFLLLKNYESLGPTEEDLQSIKQQAIEFFALPAKEKLQCEMLNSPHFLGYTRLANEITASHTDWREQIDLATELPAPKEGEPLYKNIEGPNLWPNPEVIPKFRPTIERFIEKMTALSNVFKDLVAESIGVDPKALNRYFKENQQCKMKLIAYPDVSELDGTKSAALDDTPETNQGVEPHRDSDLITYIYQATEHQNSLQVQNFQGHWITVPNIPGHLVVNNGQTLQAITGGVAKATIHRVLVPEKGTGTRISIPFFQTIDLDSSKGVVDNLPQEVIDLKNERDKKIKDWGVDTGFQFEPDVSKEPIGHAVFRNRIKSHQDVAKKWYPDVLKSVLQEYTH”, the protein production entry is “not failed”.
